According to the RNAGym collection of RNA variant scans (doi:10.1093/molbev/msab373):

B1: Azoarcus group I ribozyme (parent)
chain: GUGCCUUGCGCCGGGAAACCACGCAAGGGAUGGUGUCAAAUUCGGCGAAACCUAAGCGCCCGCCCGGGCGUAUGGCAACGCCGAGCCAAGCUUCGGCGCCUGCGCCGAUGAAGGUGUAGAGACUAGACGGCACCCACCUAAGGCAAACGCUAUGGUGAAGGCAUAGUCCAGGGAGUGGCGAAAGUCACACAAACCGG

Variants of: B1
Assay: reverse-splicing fitness (ratio to wild type); higher = more active; in vitro selection; Mg2+ level not given
Method in brief: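 An in vitro group I ribozyme library with randomized positions was T7-transcribed and gel-purified. In triplicate, 10 pmol RNA in EPPS pH 7.5 was reacted with 50 pmoles of a 30-nt RNA substrate for 1 h at 37 °C across several added MgCl2 levels (1–48 mM), then stopped with EDTA. Products were reverse transcribed from a substrate-complementary primer, PCR-amplified and sequenced (HiSeq 4000). Fitness is a variant's read proportion after selection over that before, normalised to wild type.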

| Variant | reverse-splicing fitness |
| --- | --- |
| A120C A145C C150A U176G | 0.0481 |
| A111U C150A U176G | 0.0846 |
| A111U C150A U176C | 0.251 |
| A111U C150A U176A | 0.207 |
| A111U A145U C150G C169G | 0.011 |
| A111U A145U C150G C169U | 0.0168 |
| A111U A145U C150G C169A | 0.0102 |
| A111U A145U C150G C169U U176A | 0.00897 |
| A111U A145U C150G C169U U176C | 0.0129 |
| A111U A145U C150G C169U U176G | 0.00601 |
| A111U A145C C150U U176A | 0.399 |
| A111U A145C C150U U176C | 0.436 |
| A111U A145C C150U U176G | 0.189 |
| A111U A145G C150U C169A U176G | 0.00732 |
| A111U A145G C150U C169A U176A | 0.0155 |
| A111U A145G C150U C169A U176C | 0.017 |
| A111U A145U C150A | 0.379 |
| A111U A145U C150U | 0.88 |
| A111U A145U C150G | 0.41 |
| A111U C150U U176C | 0.638 |
| A111U C150U U176G | 0.251 |
| A111U C150U U176A | 0.6 |
| A111U A145G C150A C169A U176C | 0.0233 |
| A111U A145G C150A C169A U176A | 0.0172 |

| Variant | reverse-splicing fitness |
| --- | --- |
| A111U A145G C150A C169A U176G | 0.0068 |
| A111U A145U C150U C169A | 0.0209 |
| A111U A145U C150U C169U | 0.0705 |
| A111U A145U C150U C169G | 0.0415 |
| A111U A145G C150A C169G U176A | 0.0163 |
| A111U A145G C150A C169G U176G | 0.00603 |
| A111U A145G C150A C169G U176C | 0.0292 |
| A111U A145U C150G U176C | 0.193 |
| A111U A145U C150G U176G | 0.025 |
| A111U A145U C150G U176A | 0.138 |
| A120C A145C C150A C169U U176A | 0.0342 |
| A120C A145C C150A C169U U176G | 0.00561 |
| A120C A145C C150A C169U U176C | 0.032 |
| A111U C169G U176C | 0.0333 |
| A111U C169G U176A | 0.02 |
| A111U C169G U176G | 0.00596 |
| A111U A145G C169G U176C | 0.0358 |
| A111U A145G C169G U176A | 0.0249 |
| A111U A145G C169G U176G | 0.00535 |
| A111U A145G C150A C169U | 0.0213 |
| A111U A145G C150A C169G | 0.0147 |
| A111U A145G C150A C169A | 0.0132 |
| A111U C169U U176G | 0.00752 |
| A111U C169U U176A | 0.0279 |

| Variant | reverse-splicing fitness |
| --- | --- |
| A111U C169U U176C | 0.0365 |
| A111U C150A | 0.372 |
| A111U C150U | 0.89 |
| A111U C150G | 0.308 |
| A111U A145C C150G C169A U176C | 0.00643 |
| A111U A145C C150G C169A U176G | 0.00612 |
| A120C A145C C150U C169U | 0.194 |
| A120C A145C C150U C169A | 0.0127 |
| A120C A145C C150U C169G | 0.0109 |
| A120C A145C C150U C169U U176C | 0.0863 |
| A120C A145C C150U C169U U176G | 0.00874 |
| A120C A145C C150U C169U U176A | 0.0792 |
| A111U A145C C169G | 0.0589 |
| A111U A145C C169A | 0.027 |
| A111U A145C C169U | 0.108 |
| A120C A145C C150U C169A U176C | 0.008 |
| A120C A145C C150U C169A U176A | 0.0105 |
| A120C A145C C150U C169A U176G | 0.00465 |
| A111U A145G C169A U176G | 0.00593 |
| A111U A145G C169A U176C | 0.0305 |
| A111U A145G C169A U176A | 0.0211 |
| A111U A145C U176A | 0.757 |
| A111U A145C U176G | 0.329 |
| A111U A145C U176C | 0.706 |

| Variant | reverse-splicing fitness |
| --- | --- |
| A111U C150G C169A U176C | 0.0111 |
| A111U C150G C169A U176G | 0.00689 |
| A111U C150G C169A U176A | 0.0102 |
| A111U A145C C150G C169U U176A | 0.00903 |
| A111U A145C C150G C169U U176C | 0.0128 |
| A111U A145C C150G C169U U176G | 0.00557 |
| A111U A145U C150A C169G U176C | 0.0169 |
| A111U A145U C150A C169G U176G | 0.0065 |
| A111U A145U C150A C169G U176A | 0.0129 |
| A111U A145G C169U U176A | 0.0265 |
| A111U A145G C169U U176G | 0.00581 |
| A111U A145G C169U U176C | 0.0327 |
| A120C A145C C150G C169G | 0.00786 |
| A120C A145C C150G C169U | 0.117 |
| A120C A145C C150G C169A | 0.0111 |
| A111U U176A | 0.823 |
| A111U U176G | 0.288 |
| A111U U176C | 0.793 |
| A111U A145U C150U C169U U176G | 0.00684 |
| A111U A145U C150U C169U U176A | 0.022 |
| A111U A145U C150U C169U U176C | 0.0268 |
| A111U A145U C169U U176G | 0.00639 |
| A111U A145U C169U U176C | 0.0326 |
| A111U A145U C169U U176A | 0.0258 |

| Variant | reverse-splicing fitness |
| --- | --- |
| A120C A145C C150G C169U U176A | 0.0183 |
| A120C A145C C150G C169U U176C | 0.0503 |
| A120C A145C C150G C169U U176G | 0.0043 |
| A111U A145U C169G U176C | 0.0214 |
| A111U A145U C169G U176G | 0.00562 |
| A111U A145U C169G U176A | 0.016 |
| A111U A145U C150A U176G | 0.0853 |
| A111U A145U C150A U176A | 0.192 |
| A111U A145U C150A U176C | 0.228 |
| A111U A145C C150G C169G U176A | 0.00774 |
| A111U A145C C150G C169G U176G | 0.00549 |
| A111U A145C C150G C169G U176C | 0.00846 |
| A120C A145C C150A C169A U176A | 0.00897 |
| A120C A145C C150A C169A U176C | 0.00472 |
| A120C A145C C150A C169A U176G | 0.00372 |
| A120C A145C C169U U176A | 0.143 |
| A120C A145C C169U U176G | 0.0155 |
| A120C A145C C169U U176C | 0.177 |
| A111U A145U C150A C169U U176G | 0.00626 |
| A111U A145U C150A C169U U176C | 0.0162 |
| A111U A145U C150A C169U U176A | 0.0151 |
| A120C A145C C150U U176G | 0.137 |
| A120C A145C C150U U176A | 0.398 |
| A120C A145C C150U U176C | 0.317 |

| Variant | reverse-splicing fitness |
| --- | --- |
| A111U C150U C169A U176A | 0.015 |
| A111U C150U C169A U176C | 0.0138 |
| A111U C150U C169A U176G | 0.00669 |
| A111U A145C C150U C169G U176G | 0.00741 |
| A111U A145C C150U C169G U176C | 0.0135 |
| A111U A145C C150U C169G U176A | 0.0212 |
| A111U A145C C150U C169A | 0.0113 |
| A111U A145C C150U C169U | 0.0312 |
| A111U A145C C150U C169G | 0.0177 |
| A111U A145U | 0.924 |
| A111U A145G | 0.921 |
| A111U A145C C150G U176A | 0.153 |
| A111U A145C C150G U176G | 0.0277 |
| A111U A145C C150G U176C | 0.218 |
| A120C A145G C150G C169U U176A | 0.0149 |
| A120C A145G C150G C169U U176C | 0.0406 |
| A120C A145G C150G C169U U176G | 0.00611 |
| A111U A145G C150U C169U U176C | 0.0314 |
| A111U A145G C150U C169U U176A | 0.025 |
| A111U A145G C150U C169U U176G | 0.00652 |
| A120C A145C C150A | 0.128 |
| A120C A145C C150G | 0.279 |
| A120C A145C C150U | 0.46 |
| A120C A145C C150G C169A U176A | 0.00776 |

| Variant | reverse-splicing fitness |
| --- | --- |
| A120C A145C C150G C169A U176G | 0.00424 |
| A120C A145C C150G C169A U176C | 0.00596 |
| A120C A145C C150A C169A | 0.00701 |
| A120C A145C C150A C169G | 0.00626 |
| A120C A145C C150A C169U | 0.0518 |
| A111U A145U U176C | 0.767 |
| A111U A145U U176A | 0.747 |
| A111U A145U U176G | 0.364 |
| A120C A145C C150G C169G U176C | 0.00582 |
| A120C A145C C150G C169G U176G | 0.00352 |
| A120C A145C C150G C169G U176A | 0.00848 |
| A120C A145G C150A U176G | 0.0729 |
| A120C A145G C150A U176C | 0.271 |
| A120C A145G C150A U176A | 0.263 |
| A111U A145G C150U C169G U176G | 0.00671 |
| A111U A145G C150U C169G U176A | 0.0164 |
| A111U A145G C150U C169G U176C | 0.0269 |
| A111U C150A C169A U176G | 0.00646 |
| A111U C150A C169A U176A | 0.0182 |
| A111U C150A C169A U176C | 0.0168 |
| A111U A145G C150A U176G | 0.0951 |
| A111U A145G C150A U176C | 0.299 |
| A111U A145G C150A U176A | 0.238 |
